Experimental data taken from patent publication US20150183847A1.

Molecular target: interleukin-1 receptor (human (CHO-derived cells) or murine (EL4 cells); not stated which gave the tables) (UniProt P14778)
Test: competition with 35S-IL-1Ra on IL-1 receptor cells, Kd=IC50/2

Kd: 0.15 to 0.4 nM
Substance: wild-type human IL-1Ra (from UniProt P18510 26-177)
